Measurements as given in PMC3826599.

Tests used:
[1] = biological target: Giardia lamblia macrophage migration inhibitory factor (Giardia lamblia ATCC 50803); assay: SEC
[2] = biological target: Giardia lamblia macrophage migration inhibitory factor (Giardia lamblia ATCC 50803); assay: crystal structure

## Giardia lamblia macrophage migration inhibitory factor (natural protein)
[1]
  stoichiometry N: 3
[2]
  stoichiometry N: 3
